For the test, the target named is T1, death receptor 5 (DR5) (UniProt O14763 56-182, limits assumed).
T1 construct: also called TRAIL Receptor 2; TRAILR2
Nature of the test: not stated (told in the legend of the schematic FIG. 1A).

T1 sequence (O14763 56-182 limits assumed): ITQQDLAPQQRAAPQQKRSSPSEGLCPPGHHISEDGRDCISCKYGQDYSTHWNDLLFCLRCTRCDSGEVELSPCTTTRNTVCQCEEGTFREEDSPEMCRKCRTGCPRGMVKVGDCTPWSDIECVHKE

B1: DRA monomer (single Tn3 type III fibronectin domain of tenascin engineered to bind death receptor 5) (designed binder)
chain: GAIEVKDVTDTTALITWAKPWVDPPPLWGCELTYGIKDVPGDRTTIDLQQKHTAYSIGNLKPDTEYEVSLICFDPYGMRSKPAKETFTT
notes: also called Tn3 monomer; monomer of the Tn3 domain
For the molecule B1, binding was characterised by a dissociation constant (Kd) of 43 nM.

Values taken from patent US11491206 (DUKE UNIVERSITY, dated 2022).
